According to patent US5858728, “Monoclonal antibody against LPS core” (Common Services Agency, dated 1999):
Numbering of substitutions follows the chain as printed.

B1: murine monoclonal antibody WN1 222-5 (antibody, V domains shown)
VH: EVKLVESGGGLVQPGGSLSLSCAASGFTFSDYYMTWVRQAPGKAPEWLALIRNKRNGDTAEYSASVKGRFTISRDYSRSILHLQMNALRTEDSATYYCVRQGRGYTLDYWGQGTSVTVSS
VL: DIQMNQSPSSLSASLGDTISITCRASQNINIWLSWYQQKPGNVPKLLIYKASNLHTGVPSRFSGSGSGTDFTLIISSLQPEDIATYYCLQGQSYPRTFGGGTKLEIK
B2: murine monoclonal antibody WN1 58-9 (antibody, V domains shown)
VH: EVKLVESGGGLVQPGGSLRLSCAASGFTFIDYYMTWVRHPPGEAPEWLALIRNYRNGDTAEYSASVRGRFTISRDDSQSILYLQMNALRAEDSATYYCVRQGRGYTLDYWGQGTSVTVSS
VL: B1 VL with S20T, S26R, Q27L, P40A, V43I, Y49S, I74T, Q79R

Biological target: bovine serum albumin (bovine, UniProt P02769)
Test: ELISA, plate coated with BSA as negative control (panel of purified LPS)
Method: Microtitre plates (flat bottomed; microtest III flexible assay plates: Becton Dickinson, Falcon 3912) are coated with purified LPS at 2 µg/ml in coating buffer (diethylenebarbituric acid-Na salt 30 mM. Na acetate 30 mM, NaCl 116 mM; pH 4.5). 50 µl aliquots of the LPS solution are distributed into each well. Unrelated protein (BSA, 2% in PBS pH 7.2/0.02% sodium azide) is used to determine non-specific binding. Plates are incubated for 1 hr at 37° C. and then overnight at 4° C. in a humidified chamber. Plates are washed 4 times with a washing solution i.e. phosphate buffered saline (PBS) pH 7.2, 0.05% vol/vol Tween 20, 0.02% sodium azide. Plates are blocked with 250 µl/well of 2% BSA in PBS/sodium azide 0.02% for 3 hrs at room temperature. Plates are washed again.
Antibody solutions are prepared in PBS/BSA 2%/sodium azide 0.02% at various dilutions, e.g. 1 µg/ml, 100 ng/ml, 10 ng/ml and 1 ng/ml. 50 µl aliquots of these solutions are distributed in the wells of the precoated plates. Incubation is carried out overnight at room temperature. […] After 1 hr, absorbance is read at 405 nm using a Titertek Multiskan ELISA reader (MCC/340, Flowlabs).

Binder | binding result
B1 | no binding (tested: 100 ng/ml)
B2 | no binding (tested: 100 ng/ml)
